In one test the target is ctnb1_human CTNNB1 (UniProt P35222).
The target of the next test is ctnb1_mouse Ctnnb1 (UniProt Q02248).
Sequence of ctnb1_mouse Ctnnb1 (Q02248 whole entry): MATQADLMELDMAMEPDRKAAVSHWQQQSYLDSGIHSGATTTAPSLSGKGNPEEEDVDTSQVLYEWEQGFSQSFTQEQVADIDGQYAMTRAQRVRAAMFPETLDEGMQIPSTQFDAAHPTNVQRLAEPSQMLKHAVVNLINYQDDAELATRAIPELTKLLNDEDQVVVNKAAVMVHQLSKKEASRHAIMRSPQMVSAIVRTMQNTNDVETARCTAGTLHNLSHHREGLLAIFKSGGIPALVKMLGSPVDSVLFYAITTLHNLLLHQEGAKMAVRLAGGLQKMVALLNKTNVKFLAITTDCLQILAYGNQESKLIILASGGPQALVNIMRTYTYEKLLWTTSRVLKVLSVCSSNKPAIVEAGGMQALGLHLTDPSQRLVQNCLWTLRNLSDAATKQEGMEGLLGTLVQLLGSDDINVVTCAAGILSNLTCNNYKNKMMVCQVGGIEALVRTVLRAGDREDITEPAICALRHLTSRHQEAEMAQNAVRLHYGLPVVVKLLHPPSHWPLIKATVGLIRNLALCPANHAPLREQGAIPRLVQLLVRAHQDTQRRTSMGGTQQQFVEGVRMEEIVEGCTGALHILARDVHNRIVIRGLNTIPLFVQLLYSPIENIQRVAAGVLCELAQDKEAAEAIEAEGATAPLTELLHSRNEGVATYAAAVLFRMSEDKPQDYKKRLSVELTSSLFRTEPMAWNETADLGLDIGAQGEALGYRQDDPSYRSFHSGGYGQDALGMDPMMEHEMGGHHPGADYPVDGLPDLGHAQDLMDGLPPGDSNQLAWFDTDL

Sequence of ctnb1_human CTNNB1 (P35222 whole entry): as the sequence (Q02248 whole entry) above, with A706P counted along it

As to “CREB-binding protein (Homo sapiens), Q92793 S92A”, the “effect of a mutation on the interaction” value in the test with ctnb1_human CTNNB1 is reported as “decreasing interaction”.

Consider “Histone lysine acetyltransferase CREBBP (Mus musculus), P45481 S92A”, for which the “effect of a mutation on the interaction” value with ctnb1_mouse Ctnnb1 is listed as “decreasing interaction”.

Values taken from IntAct's records for PubMed 21751375.
